Experimental data taken from patent US20200319189A1.

Key:
[1] = biological target: AGP from plasma of patients with hepatocellular carcinoma (HCC-AGP) (human) (UniProt P02763); assay: standard lectin ELISA: antibody 058 coated, plasma 1:50, biotinylated S2 at 0.25 µg/mL for detection
[2] = biological target: AGP from plasma of patients with hepatocellular carcinoma (HCC-AGP) (human) (UniProt P02763); assay: reversed S2-ELISA, HCC-plasma sample against a normal sample (background); 5 µg/ml S2 coating
[3] = biological target: AGP from plasma of patients with hepatocellular carcinoma (HCC-AGP) (human) (UniProt P02763); assay: reversed S2-ELISA: S2 coated at 5 µg/mL, plasma 1:50, detection with antibody 058
[4] = biological target: desialylated AGP (dsAGP) (human) (UniProt P02763); assay: reversed S2-ELISA: S2 coated at 5 µg/mL, dsAGP 2 µg/ml, detection with antibody 058
[5] = biological target: desialylated AGP (dsAGP) (human) (UniProt P02763); assay: standard lectin ELISA: antibody 058 coated, dsAGP 2 µg/ml, biotinylated S2 at 0.25 µg/mL for detection

signal to background ratio [1]: 1.05
signal to background ratio [2]: 10
signal to noise ratio [3]: 5.1
signal to noise ratio [4]: 5.2
signal to background ratio [5]: 1.38
Substance: S2-peptide (monovalent fucose-binding peptide; recombinant form of Aleuria aurantia lectin comprising only binding site 2) (from UniProt P18891 51-161)
